From article PMC10968392, “Fluorometric and Colorimetric Method for SARS-CoV-2 Detection Using Designed Aptamer Display Particles”

B1: C4-AdP (SpS1-C4 displayed on magnetic particle) (ssDNA)
DNA: GAACATTGGCGTCCGTGAGCAGCTCGTGGTTGTTTGCTTGTATACTTTTGTGGTTTATCTTGTTTCTGATCACTTCCTCAAACGCCCAA
modifications: 5' amino linkage to bead
B2: C1-AdP (SpS1-C1 displayed on magnetic particle) (ssDNA)
DNA: GAACATTGGCGTCCGTGAGTGAGACCATAGTCCAGCGAACTAAACCTACCCTAAAGGGCAAGGAAGACGGGCACTTCCTCAAACGCCCAA
modifications: 5' amino linkage to bead

Target: SARS-CoV-2 spike protein extracellular domain (ECD), biotinylated (SARS-CoV-2, UniProt P0DTC2)
Test: bead-based flow cytometry
Conditions: protein: commercial; chain copies: 3

Row | Binder | binding result
1 | B1 | binds
2 | B2 | binds
